# Assay results from patent US20220168434A1, “APPLICATION OF TRANSTHYRETIN IN ENTERING EYE AND PREPARING DROP” (YIZHOU (SHANGHAI) BIOLOGICAL MEDICINE CO, LTD., priority 2019, published 2022).
# Assays:
# [1] = Protein content in vitreous body during two weeks of eye dropping (ELISA, anti-His tag antibody); type: in vivo, SD rats (Rattus norregicus); conditions: SD rats; protein not fused with TTR
# Method: (§1) The purified TTR protein (at a concentration of 4 μmol/L) prepared in Example 1 after removal of endotoxin and bacteria was subject to treating healthy SD rats (Rattus norregicus) (6 weeks old) and New Zealand big-eared rabbits (Oryctolagus cuniculus) (2 months old, about 2.5 kg) by means of eye dropping, the left eye was the sample eye dropped with the protein, and the right eye was the blank control eye dropped with saline. The protein was administered 1-3 times per day at a dosage of 0.4-0.8 nmol. Two weeks later, the eyeball was removed and separated to obtain the vitreous body sample. It was preliminarily verified by western-blot method (FIG. 7A) that TTR can enter the vitreous cavity from the ocular surface.
# (§2) The purified TTR-GFP protein (at a concentration of 4 μmol/L) prepared in Example 2 after removal of endotoxin and bacteria was subject to treating healthy SD rats (Rattus norregicus) (6 weeks old) and New Zealand big-eared rabbits (Oryctolagus cuniculus) (2 months old, about 2.5 kg) by means of eye dropping, the left eye was the sample eye dropped with the protein, and the right eye was the blank control eye dropped with saline. The protein was administered 1-3 times per day at a dosage of 0.4-0.8 nmol. […] The content of TTR-GFP in the vitreous body sample was determined by ELISA with the anti-His tag antibody as the primary antibody (Table 10 and 11). […]
# [2] = as above; type: in vivo, New Zealand big-eared rabbits (Oryctolagus cuniculus); conditions: New Zealand big-ear rabbits; protein not fused with TTR
# Method: as §1, §2
substance,measurement,setting,value
Lysozyme: Lysozyme protein (Genbank Accession No.: AAL69327.1) not fused with TTR,entering the vitreous body after eye dropping (in words),[1],did not enter
same,entering the vitreous body after eye dropping (in words),[2],did not enter
